This passage reports Kd results from paper PMC5548887.

In general, Kd refers to a measure of binding affinity in units of concentration. Low values mean a tighter complex, high ones a looser complex.

The assay addresses HHARI full-length (residues 1-557) (UniProt Q9Y4X5). Kind of assay: ITC; nanoITC, 25 °C, 50 mM NaCl, 10 mM Na2HPO4, 2 mM KH2PO4 pH 7.0; 200 μM UbcH7 proteins injected into 20 μM HHARI full length; 500 μM UbcH5b proteins into 50 μM HHARI full length.

Chain of HHARI full-length (residues 1-557) (Q9Y4X5 whole entry, the tested form may be a part): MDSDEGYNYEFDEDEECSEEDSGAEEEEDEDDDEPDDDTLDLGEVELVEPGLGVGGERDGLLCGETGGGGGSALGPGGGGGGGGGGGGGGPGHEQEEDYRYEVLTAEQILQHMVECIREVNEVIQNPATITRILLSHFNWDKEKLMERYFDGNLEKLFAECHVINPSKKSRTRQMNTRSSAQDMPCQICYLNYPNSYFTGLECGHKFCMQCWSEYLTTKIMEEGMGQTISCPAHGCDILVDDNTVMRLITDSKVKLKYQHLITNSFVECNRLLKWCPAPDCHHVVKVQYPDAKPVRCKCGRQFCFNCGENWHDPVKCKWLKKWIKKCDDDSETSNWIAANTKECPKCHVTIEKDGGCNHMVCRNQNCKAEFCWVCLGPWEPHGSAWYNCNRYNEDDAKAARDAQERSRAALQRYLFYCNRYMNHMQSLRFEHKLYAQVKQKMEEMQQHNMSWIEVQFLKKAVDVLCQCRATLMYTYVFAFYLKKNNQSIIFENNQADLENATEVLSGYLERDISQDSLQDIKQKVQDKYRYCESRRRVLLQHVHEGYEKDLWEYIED
Chain of UbcH5b wild type (P62837 whole entry): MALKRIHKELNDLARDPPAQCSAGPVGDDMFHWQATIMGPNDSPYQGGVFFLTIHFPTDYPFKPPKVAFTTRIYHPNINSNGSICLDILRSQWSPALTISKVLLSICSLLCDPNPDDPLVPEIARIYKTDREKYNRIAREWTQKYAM

In the case of “UbcH5b wild type (from UniProt P62837 1-147) (enzyme; other documents disagree on this pair)”, the Kd stood at 19.5 µM.
